The supplement of paper PMC11780869

Tested on: Bacillus subtilis
Test: cleaved RNA product abundance (RNA/gDNA barcode ratio) relative to median wild-type variant (ratio to wild type); higher = more accumulation of the downstream cleavage product
Details: cleavage site: cggR-gapA (positions -7 to +36 mutated)
Summary of the method: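 Truncated aprE or tetM reporter mRNAs with barcoded RNase Y cleavage-site windows, mutagenized from oligos at a 9% error rate, sat in the B. subtilis chromosome. Cells grew in LB at 37°C from OD600 0.0003 to 0.3. Gel-selected cleaved RNA was reverse transcribed and its barcodes sequenced with those from genomic DNA, collapsing by UMI. Cleaved product abundance equals the RNA:gDNA barcode ratio per construct over the median construct with the unmutated site.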

[1] = experiment (reporter, strain, medium): exp 4a: truncated aprE reporter, strain BJT201 with 2% xylose (RNase J1 expressed)
[2] = experiment (reporter, strain, medium): exp 2b: truncated aprE reporter, strain BJT200

| Sequence | cleaved RNA product abundance [1] | cleaved RNA product abundance [2] | cleaved RNA product abundance (experiment (reporter, strain, medium): exp 6: tetM reporter, strain 168) |
| --- | --- | --- | --- |
| ACAGACGAAGGAGCCGCAAAGAAGTTATCAAGGGATGAATATTCCCTCAATATAAATATCTCTCACTTATTTAAA | 0.27 | – | – |
| ACAGACGAAGGAGCCGCAAAGAAGTTATCAAGGGATGAATTATCCCTCAATATAAATATCTCTCACTTATTTAAA | 0.25 | – | – |
| ACAGACGAAGGAGCCGCAAAGAAGTTATCAAGGGATTAATAATCCCTCAATATAAATATCTCTCACTTATTTAAA | 0.301 | – | – |
| ACAGACGAAGGAGCCGCAAAGAAGTTATCAAGGGATTAATAATCCCTCATTATAAATATCTCTCACTTATTTAAA | 0.314 | – | – |
| ACAGACGAAGGAGCCGCAAAGAAGTTATCAAGGTATGAATAATCCCTCAATATAAATATCTCTCACTTATTTAAA | 0.169 | – | – |
| ACAGACGAAGGAGCCGCAAAGAAGTTATCAAGTGATGAATAATCCCTCAATATAAATATCTCTCACTTATTTAAA | 0.0945 | – | – |
| ACAGACGAAGGAGCCGCAAAGAAGTTATCAATGGATGAATAATCCCTCAATATAAATATCTCTCACTTATTTAAA | 0.146 | – | – |
| ACAGACGAAGGAGCCGCAAAGAAGTTATCAGGGGATGAATAATCCCTCAATATAAATATCTCTCACTTATTTAAA | – | 0.323 | – |
| ACAGACGAAGGAGCCGCAAAGAAGTTATCATGGGATGAATAATCCCTCAATATAAATATCTCTCACTTATTTAAA | 0.262 | – | – |
| ACAGACGAAGGAGCCGCAAAGAAGTTATCTAGGGATGAATAATCCCTCAATATAAATATCTCTCACTTATTTAAA | 0.316 | – | – |
| ACAGACGAAGGAGCCGCAAAGAAGTTATGAAAGGATGAATAATCCCTCAATATAAATATCTCTCACTTATTTAAA | 0.178 | – | – |
| ACAGACGAAGGAGCCGCAAAGAAGTTATGAACGGATGAATAATCCCTCAATATAAATATCTCTCACTTATTTAAA | 0.242 | 0.177 | – |
| ACAGACGAAGGAGCCGCAAAGAAGTTATGAAGAGATGAATAATCCCTCAATATAAATATCTCTCACTTATTTAAA | 0.0998 | – | – |
| ACAGACGAAGGAGCCGCAAAGAAGTTATGAAGCGATGAATAATCCCTCAATATAAATATCTCTCACTTATTTAAA | 0.0897 | – | – |
| ACAGACGAAGGAGCCGCAAAGAAGTTATGAAGGAATGAATAATCCCTCAATATAAATATCTCTCACTTATTTAAA | 0.0818 | 0.139 | – |
| ACAGACGAAGGAGCCGCAAAGAAGTTATGAAGGCATGAATAATCCCTCAATATAAATATCTCTCACTTATTTAAA | 0.116 | 0.108 | – |
| ACAGACGAAGGAGCCGCAAAGAAGTTATGAAGGGACGAATAATCCCTCAATATAAATATCTCTCACTTATTTAAA | 0.318 | – | – |
| ACAGACGAAGGAGCCGCAAAGAAGTTATGAAGGGAGGAATAATCCCTCAATATAAATATCTCTCACTTATTTAAA | – | 0.22 | – |
| ACAGACGAAGGAGCCGCAAAGAAGTTATGAAGGGATAAATAATCCCTCAATATAAATATCTCTCACTTATTTAAA | 0.542 | 0.349 | – |
| ACAGACGAAGGAGCCGCAAAGAAGTTATGAAGGGATGAATAACCCCTCAATATAAATATCTCTCACTTATTTAAA | 0.419 | – | – |

| Sequence | cleaved RNA product abundance [1] | cleaved RNA product abundance [2] | cleaved RNA product abundance (experiment (reporter, strain, medium): exp 6: tetM reporter, strain 168) |
| --- | --- | --- | --- |
| ACAGACGAAGGAGCCGCAAAGAAGTTATGAAGGGATGAATAATCCATCAATATAAATATCTCTCACTTATTTAAA | – | 0.185 | – |
| ACAGACGAAGGAGCCGCAAAGAAGTTATGAAGGGATGAATAATCCCACAATATAAATATCTCTCACTTATTTAAA | – | 0.138 | – |
| ACAGACGAAGGAGCCGCAAAGAAGTTATGAAGGGATGAATAATCCCTAAATATAAATATCTCTCACTTATTTAAA | 0.711 | 0.38 | – |
| ACAGACGAAGGAGCCGCAAAGAAGTTATGAAGGGATGAATAATCCCTCAATATAAATATCTCTCACTTATTTAAA | 0.502 | 0.384 | 0.205 |
| ACAGACGAAGGAGCCGCAAAGAAGTTATGAAGGGATGAATAATCCCTCAATATACATATCTCTCACTTATTTAAA | 0.344 | – | – |
| ACAGACGAAGGAGCCGCAAAGAAGTTATGAAGGGATGAATAATCCCTCAATATAGATATCTCTCACTTATTTAAA | 0.446 | – | – |
| ACAGACGAAGGAGCCGCAAAGAAGTTATGAAGGGATGAATAATCCCTCAATATTAATATCTCTCACTTATTTAAA | 0.125 | – | – |
| ACAGACGAAGGAGCCGCAAAGAAGTTATGAAGGGATGAATAATCCCTCTATATAAATATCTCTCACTTATTTAAA | 0.516 | – | – |
| ACAGACGAAGGAGCCGCAAAGAAGTTATGAAGGGATGAATAATCCCTTAATATAAATATCTCTCACTTATTTAAA | 0.789 | – | – |
| ACAGACGAAGGAGCCGCAAAGAAGTTATGAAGGGATGAATAATCCGTCAATATAAATATCTCTCACTTATTTAAA | 0.222 | – | – |
| ACAGACGAAGGAGCCGCAAAGAAGTTATGAAGGGATGAATAATCCTTCAATATAAATATCTCTCACTTATTTAAA | 0.441 | – | – |
| ACAGACGAAGGAGCCGCAAAGAAGTTATGAAGGGATGAATAATCGCTCAATATAAATATCTCTCACTTATTTAAA | 0.0808 | – | – |
| ACAGACGAAGGAGCCGCAAAGAAGTTATGAAGGGATGAATAATTCCTCAATATAAATATCTCTCACTTATTTAAA | 0.316 | 0.274 | – |
| ACAGACGAAGGAGCCGCAAAGAAGTTATGAAGGGATGAATTATCCCTCAATATAAATATCTCTCACTTATTTAAA | 0.343 | 0.232 | – |
| ACAGACGAAGGAGCCGCAAAGAAGTTATGAAGGGATGCATAATCCCTCAATATAAATATCTCTCACTTATTTAAA | 0.542 | – | – |
| ACAGACGAAGGAGCCGCAAAGAAGTTATGAAGGGATGTATAATCCCTCAATATAAATATCTCTCACTTATTTAAA | 0.311 | – | – |
| ACAGACGAAGGAGCCGCAAAGAAGTTATGAAGGGATTAATAATCCCTCAATATAAATATCTCTCACTTATTTAAA | 0.476 | 0.402 | – |
| ACAGACGAAGGAGCCGCAAAGAAGTTATGAAGGTATGAATAATCCCTCAATATAAATATCTCTCACTTATTTAAA | 0.0823 | 0.113 | – |
| ACAGACGAAGGAGCCGCAAAGAAGTTATGAAGTGATGAATAATCCCTCAATATAAATATCTCTCACTTATTTAAA | 0.0812 | 0.0796 | – |
| ACAGACGAAGGAGCCGCAAAGAAGTTATGAATGGATGAATAATCCCTCAATATAAATATCTCTCACTTATTTAAA | 0.147 | – | – |

| Sequence | cleaved RNA product abundance [1] | cleaved RNA product abundance [2] | cleaved RNA product abundance (experiment (reporter, strain, medium): exp 6: tetM reporter, strain 168) |
| --- | --- | --- | --- |
| ACAGACGAAGGAGCCGCAAAGAAGTTATGACGGGATGAATAATCCCTCAATATAAATATCTCTCACTTATTTAAA | 0.844 | – | – |
| ACAGACGAAGGAGCCGCAAAGAAGTTATTAAAAGATGAATAATCCCTCAATATAAATATCTCTCACTTATTTAAA | 0.0921 | 0.107 | – |
| ACAGACGAAGGAGCCGCAAAGAAGTTATTAAAAGATTAATAATCCCTCAATATAAATATCTCTCACTTATTTAAA | – | 0.104 | – |
| ACAGACGAAGGAGCCGCAAAGAAGTTATTAAACGATGAATAATCCCTCAATATAAATATCTCTCACTTATTTAAA | 0.109 | 0.0904 | – |
| ACAGACGAAGGAGCCGCAAAGAAGTTATTAAACGATGAATAATCTCTCAATATAAATATCTCTCACTTATTTAAA | 0.179 | 0.109 | – |
| ACAGACGAAGGAGCCGCAAAGAAGTTATTAAAGAATGAATAATACCTCAATATAAATATCTCTCACTTATTTAAA | 0.159 | – | – |
| ACAGACGAAGGAGCCGCAAAGAAGTTATTAAAGAATGAATAATCCCTCAATATAAATATCTCTCACTTATTTAAA | 0.114 | 0.0737 | – |
| ACAGACGAAGGAGCCGCAAAGAAGTTATTAAAGCATGAATAATCCCTCAATATAAATATCTCTCACTTATTTAAA | 0.11 | 0.119 | – |
| ACAGACGAAGGAGCCGCAAAGAAGTTATTAAAGCATTAATAATCCCTCAATATAAATATCTCTCACTTATTTAAA | 0.134 | – | – |
| ACAGACGAAGGAGCCGCAAAGAAGTTATTAAAGGAAGAATAATCCCTCAATATAAATATCTCTCACTTATTTAAA | 0.112 | 0.0711 | – |
| ACAGACGAAGGAGCCGCAAAGAAGTTATTAAAGGACGAATAATCCCTCAATATAAATATCTCTCACTTATTTAAA | 0.103 | – | – |
| ACAGACGAAGGAGCCGCAAAGAAGTTATTAAAGGAGGAATAATCCCTCAATATAAATATCTCTCACTTATTTAAA | 0.25 | – | – |
| ACAGACGAAGGAGCCGCAAAGAAGTTATTAAAGGATAAATAAACCCTCAATATAAATATCTCTCACTTATTTAAA | 0.128 | – | – |
| ACAGACGAAGGAGCCGCAAAGAAGTTATTAAAGGATAAATAATCCCTCAATATAAATATCTCTCACTTATTTAAA | 0.139 | 0.108 | – |
| ACAGACGAAGGAGCCGCAAAGAAGTTATTAAAGGATAAATAATCTCTCAATATAAATATCTCTCACTTATTTAAA | 0.112 | – | – |
| ACAGACGAAGGAGCCGCAAAGAAGTTATTAAAGGATCAATAATCCCTCAATATAAATATCTCTCACTTATTTAAA | 0.115 | – | – |
| ACAGACGAAGGAGCCGCAAAGAAGTTATTAAAGGATGAAAAATCCCTCAATATAAATATCTCTCACTTATTTAAA | 0.183 | 0.104 | – |
| ACAGACGAAGGAGCCGCAAAGAAGTTATTAAAGGATGAACAATCCCTCAATATAAATATCTCTCACTTATTTAAA | 0.207 | 0.0976 | – |
| ACAGACGAAGGAGCCGCAAAGAAGTTATTAAAGGATGAAGAATCCCTCAATATAAATATCTCTCACTTATTTAAA | 0.232 | – | – |
| ACAGACGAAGGAGCCGCAAAGAAGTTATTAAAGGATGAATAAACCCTCAATATAAATATCTCTCACTTATTTAAA | 0.101 | 0.115 | – |
